Data set [1] deals with A366 peptide (STING peptide substrate with alanine at 366).
The target of data set [2] is S366 peptide (STING peptide substrate with serine 366).

B1: NEK9 (protein)
chain: MSVLGEYERHCDSINSDFGSESGGCGDSSPGPSASQGPRAGGGAAEQEELHYIPIRVLGRGAFGEATLYRRTEDDSLVVWKEVDLTRLSEKERRDALNEIVILALLQHDNIIAYYNHFMDNTTLLIELEYCNGGNLYDKILRQKDKLFEEEMVVWYLFQIVSAVSCIHKAGILHRDIKTLNIFLTKANLIKLGDYGLAKKLNSEYSMAETLVGTPYYMSPELCQGVKYNFKSDIWAVGCVIFELLTLKRTFDATNPLNLCVKIVQGIRAMEVDSSQYSLELIQMVHSCLDQDPEQRPTADELLDRPLLRKRRREMEEKVTLLNAPTKRPRSSTVTEAPIAVVTSRTSEVYVWGGGKSTPQKLDVIKSGCSARQVCAGNTHFAVVTVEKELYTWVNMQGGTKLHGQLGHGDKASYRQPKHVEKLQGKAIRQVSCGDDFTVCVTDEGQLYAFGSDYYGCMGVDKVAGPEVLEPMQLNFFLSNPVEQVSCGDNHVVVLTRNKEVYSWGCGEYGRLGLDSEEDYYTPQKVDVPKALIIVAVQCGCDGTFLLTQSGKVLACGLNEFNKLGLNQCMSGIINHEAYHEVPYTTSFTLAKQLSFYKIRTIAPGKTHTAAIDERGRLLTFGCNKCGQLGVGNYKKRLGINLLGGPLGGKQVIRVSCGDEFTIAATDDNHIFAWGNGGNGRLAMTPTERPHGSDICTSWPRPIFGSLHHVPDLSCRGWHTILIVEKVLNSKTIRSNSSGLSIGTVFQSSSPGGGGGGGGGEEEDSQQESETPDPSGGFRGTMEADRGMEGLISPTEAMGNSNGASSSCPGWLRKELENAEFIPMPDSPSPLSAAFSESEKDTLPYEELQGLKVASEAPLEHKPQVEASSPRLNPAVTCAGKGTPLTPPACACSSLQVEVERLQGLVLKCLAEQQKLQQENLQIFTQLQKLNKKLEGGQQVGMHSKGTQTAKEEMEMDPKPDLDSDSWCLLGTDSCRPSL
In the case of B1, the values for the Activity (cpm) in data set [1] and in data set [2] were 6980 cpm and 26300 cpm, respectively. In data set [2], the Fold induction came to 3.77 fold.

B2: NEK2 (protein)
chain: MPSRAEDYEVLYTIGTGSYGRCQKIRRKSDGKILVWKELDYGSMTEAEKQMLVSEVNLLRELKHPNIVRYYDRIIDRTNTTLYIVMEYCEGGDLASVITKGTKERQYLDEEFVLRVMTQLTLALKECHRRSDGGHTVLHRDLKPANVFLDGKQNVKLGDFGLARILNHDTSFAKTFVGTPYYMSPEQMNRMSYNEKSDIWSLGCLLYELCALMPPFTAFSQKELAGKIREGKFRRIPYRYSDELNEIITRMLNLKDYHRPSVEEILENPLIADLVADEQRRNLERRGRQLGEPEKSQDSSPVLSELKLKEIQLQERERALKAREERLEQKEQELCVRERLAEDKLARAENLLKNYSLLKERKFLSLASNPELLNLPSSVIKKKVHFSGESKENIMRSENSESQLTSKSKCKDLKKRLHAAQLRAQALSDIEKNYQLKSRQILGMR
Take B2: the Activity (cpm) stood at 8700 cpm in data set [1] and 162000 cpm in data set [2]. In data set [2], this protein showed a Fold induction of 18.6 fold.

B3: ULK1 (protein)
chain: MEPGRGGTETVGKFEFSRKDLIGHGAFAVVFKGRHREKHDLEVAVKCINKKNLAKSQTLLGKEIKILKELKHENIVALYDFQEMANSVYLVMEYCNGGDLADYLHAMRTLSEDTIRLFLQQIAGAMRLLHSKGIIHRDLKPQNILLSNPAGRRANPNSIRVKIADFGFARYLQSNMMAATLCGSPMYMAPEVIMSQHYDGKADLWSIGTIVYQCLTGKAPFQASSPQDLRLFYEKNKTLVPTIPRETSAPLRQLLLALLQRNHKDRMDFDEFFHHPFLDASPSVRKSPPVPVPSYPSSGSGSSSSSSSTSHLASPPSLGEMQQLQKTLASPADTAGFLHSSRDSGGSKDSSCDTDDFVMVPAQFPGDLVAEAPSAKPPPDSLMCSGSSLVASAGLESHGRTPSPSPPCSSSPSPSGRAGPFSSSRCGASVPIPVPTQVQNYQRIERNLQSPTQFQTPRSSAIRRSGSTSPLGFARASPSPPAHAEHGGVLARKMSLGGGRPYTPSPQVGTIPERPGWSGTPSPQGAEMRGGRSPRPGSSAPEHSPRTSGLGCRLHSAPNLSDLHVVRPKLPKPPTDPLGAVFSPPQASPPQPSHGLQSCRNLRGSPKLPDFLQRNPLPPILGSPTKAVPSFDFPKTPSSQNLLALLARQ
Take B3: the Activity (cpm) in data set [1] came out at 12200 cpm; in data set [2], 209000 cpm. Further, the Fold induction in data set [2] amounted to 17.1 fold.

B4: IRAK4 (protein)
chain: MNKPITPSTYVRCLNVGLIRKLSDFIDPQEGWKKLAVAIKKPSGDDRYNQFHIRRFEALLQTGKSPTSELLFDWGTTNCTVGDLVDLLIQNEFFAPASLLLPDAVPKTANTLPSKEAITVQQKQMPFCDKDRTLMTPVQNLEQSYMPPDSSSPENKSLEVSDTRFHSFSFYELKNVTNNFDERPISVGGNKMGEGGFGVVYKGYVNNTTVAVKKLAAMVDITTEELKQQFDQEIKVMAKCQHENLVELLGFSSDGDDLCLVYVYMPNGSLLDRLSCLDGTPPLSWHMRCKIAQGAANGINFLHENHHIHRDIKSANILLDEAFTAKISDFGLARASEKFAQTVMTSRIVGTTAYMAPEALRGEITPKSDIYSFGVVLLEIITGLPAVDEHREPQLLLDIKEEIEDEEKTIEDYIDKKMNDADSTSVEAMYSVASQCLHEKKNKRPDIKKVQQLLQEMTAS
Turning to B4, the Activity (cpm) in data set [1] amounted to 7440 cpm. In data set [2], the Activity (cpm) is 50400 cpm and the Fold induction is 6.77 fold.

B5: PKCι (protein)
chain: MPTQRDSSTMSHTVAGGGSGDHSHQVRVKAYYRGDIMITHFEPSISFEGLCNEVRDMCSFDNEQLFTMKWIDEEGDPCTVSSQLELEEAFRLYELNKDSELLIHVFPCVPERPGMPCPGEDKSIYRRGARRWRKLYCANGHTFQAKRFNRRAHCAICTDRIWGLGRQGYKCINCKLLVHKKCHKLVTIECGRHSLPQEPVMPMDQSSMHSDHAQTVIPYNPSSHESLDQVGEEKEAMNTRESGKASSSLGLQDFDLLRVIGRGSYAKVLLVRLKKTDRIYAMKVVKKELVNDDEDIDWVQTEKHVFEQASNHPFLVGLHSCFQTESRLFFVIEYVNGGDLMFHMQRQRKLPEEHARFYSAEISLALNYLHERGIIYRDLKLDNVLLDSEGHIKLTDYGMCKEGLRPGDTTSTFCGTPNYIAPEILRGEDYGFSVDWWALGVLMFEMMAGRSPFDIVGSSDNPDQNTEDYLFQVILEKQIRIPRSLSVKAASVLKSFLNKDPKERLGCHPQTGFADIQGHPFFRNVDWDMMEQKQVVPPFKPNISGEFGLDNFDSQFTNEPVQLTPDDDDIVRKIDQSEFEGFEYINPLLMSAEECV
For B5, in data set [1], the Activity (cpm) was found to be 6810 cpm. Moreover, in data set [2], the Activity (cpm) worked out at 12800 cpm and the Fold induction turned out to be 1.88 fold.

B6: TBK1 (protein kinase of the kinase panel) (protein)
chain: MQSTSNHLWLLSDILGQGATANVFRGRHKKTGDLFAIKVFNNISFLRPVDVQMREFEVLKKLNHKNIVKLFAIEEETTTRHKVLIMEFCPCGSLYTVLEEPSNAYGLPESEFLIVLRDVVGGMNHLRENGIVHRDIKPGNIMRVIGEDGQSVYKLTDFGAARELEDDEQFVSLYGTEEYLHPDMYERAVLRKDHQKKYGATVDLWSIGVTFYHAATGSLPFRPFEGPRRNKEVMYKIITGKPSGAISGVQKAENGPIDWSGDMPVSCSLSRGLQVLLTPVLANILEADQEKCWGFDQFFAETSDILHRMVIHVFSLQQMTAHKIYIHSYNTATIFHELVYKQTKIISSNQELIYEGRRLVLEPGRLAQHFPKTTEENPIFVVSREPLNTIGLIYEKISLPKVHPRYDLDGDASMAKAITGVVCYACRIASTLLLYQELMRKGIRWLIELIKDDYNETVHKKTEVVITLDFCIRNIEKTVKVYEKLMKINLEAAELGEISDIHTKLLRLSSSQGTIETSLQDIDSRLSPGGSLADAWAHQEGTHPKDRNVEKLQVLLNCMTEIYYQFKKDKAERRLAYNEEQIHKFDKQKLYYHATKAMTHFTDECVKKYEAFLNKSEEWIRKMLHLRKQLLSLTNQCFDIEEEVSKYQEYTNELQETLPQKMFTASSGIKHTMTPIYPSSNTLVEMTLGMKKLKEEMEGVVKELAENNHILERFGSLTMDGGLRNVDCL
As for B6, the Activity (cpm) in data set [1] is 6600 cpm. In addition, in data set [2], the Activity (cpm) was found to be 16700 cpm and the Fold induction stood at 2.52 fold.

B7: IKKα (protein)
chain: MERPPGLRPGAGGPWEMRERLGTGGFGNVCLYQHRELDLKIAIKSCRLELSTKNRERWCHEIQIMKKLNHANVVKACDVPEELNILIHDVPLLAMEYCSGGDLRKLLNKPENCCGLKESQILSLLSDIGSGIRYLHENKIIHRDLKPENIVLQDVGGKIIHKIIDLGYAKDVDQGSLCTSFVGTLQYLAPELFENKPYTATVDYWSFGTMVFECIAGYRPFLHHLQPFTWHEKIKKKDPKCIFACEEMSGEVRFSSHLPQPNSLCSLVVEPMENWLQLMLNWDPQQRGGPVDLTLKQPRCFVLMDHILNLKIVHILNMTSAKIISFLLPPDESLHSLQSRIERETGINTGSQELLSETGISLDPRKPASQCVLDGVRGCDSYMVYLFDKSKTVYEGPFASRSLSDCVNYIVQDSKIQLPIIQLRKVWAEAVHYVSGLKEDYSRLFQGQRAAMLSLLRYNANLTKMKNTLISASQQLKAKLEFFHKSIQLDLERYSEQMTYGISSEKMLKAWKEMEEKAIHYAEVGVIGYLEDQIMSLHAEIMELQKSPYGRRQGDLMESLEQRAIDLYKQLKHRPSDHSYSDSTEMVKIIVHTVQSQDRVLKELFGHLSKLLGCKQKIIDLLPKVEVALSNIKEADNTVMFMQGKRQKEIWHLLKIACTQSSARSLVGSSLEGAVTPQTSAWLPPTSAEHDHSLSCVVTPQDGETSAQMIEENLNCLGHLSTIIHEANEEQGNSMMNLDWSWLTE
Regarding B7, the results for the Activity (cpm) in data set [1] and in data set [2] were 2430 cpm and 6890 cpm, respectively. In addition, the Fold induction in data set [2] was 2.83 fold.

B8: MEKK1 (protein)
chain: NQKCKEKMEAEEEEALAIAMAMSASQDALPIVPQLQVENGEDIIIIQQDTPETLPGHTKAKQPYREDTEWLKGQQIGLGAFSSCYQAQDVGTGTLMAVKQVTYVRNTSSEQEEVVEALREEIRMMSHLNHPNIIRMLGATCEKSNYNLFIEWMAGGSVAHLLSKYGAFKESVVINYTEQLLRGLSYLHENQIIHRDVKGANLLIDSTGQRLRIADFGAAARLASKGTGAGEFQGQLLGTIAFMAPEVLRGQQYGRSCDVWSVGCAIIEMACAKPPWNAEKHSNHLALIFKIASATTAPSIPSHLSPGLRDVALRCLELQPQDRPPSRELLKHPVFRTTW
Turning to B8, the values for the Activity (cpm) in data set [1] and in data set [2] were 11300 cpm and 24900 cpm, respectively. This protein registered a Fold induction in data set [2] of 2.2 fold.

B9: RIPK5 (protein)
chain: FAASLRQLEAGHSGRLEKTEDLWLRVRKDHAPRLARLSLESCSLQDVLLHRKPKLGQELGRGQYGVVYLCDNWGGHFPCALKSVVPPDEKHWNDLALEFHYMRSLPKHERLVDLHGSVIDYNYGGGSSIAVLLIMERLHRDLYTGLKAGLTLETRLQIALDVVEGIRFLHSQGLVHRDIKLKNVLLDKQNRAKITDLGFCKPEAMMSGSIVGTPIHMAPELFTGKYDNSVDVYAFGILFWYICSGSVKLPEAFERCASKDHLWNNVRRGARPERLPVFDEECWQLMEACWDGDPLKRPLLGIVQPMLQGIMNRLCKSNSEQPNRGLDDST
The protein B9 displayed an Activity (cpm) in data set [1] of 1330 cpm. In data set [2], this protein returned an Activity (cpm) of 16000 cpm and a Fold induction of 12 fold.

Values taken from patent US20130039933.
